In US20130071393A1 (published 2013):
Substitutions are numbered along the chain they refer to. One block for each molecule: values may come before it.

Key:
GDF11 [1] = target: T1, GDF11 (UniProt O95390 299-407); assay: cell-based or functional assay
T1 construct: Ligand used in the reporter gene and BiaCore assays; construct not described; also called Growth and Differentiation Factor-11; BMP11
T1 sequence (looked up): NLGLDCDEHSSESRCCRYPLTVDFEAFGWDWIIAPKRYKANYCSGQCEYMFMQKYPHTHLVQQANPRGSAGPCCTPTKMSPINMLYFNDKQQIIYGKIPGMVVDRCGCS

Activin A [2] = target: T2, Activin A (UniProt P08476 311-426); assay: cell-based or functional assay
T2 construct: also called ActA
T2 sequence (looked up): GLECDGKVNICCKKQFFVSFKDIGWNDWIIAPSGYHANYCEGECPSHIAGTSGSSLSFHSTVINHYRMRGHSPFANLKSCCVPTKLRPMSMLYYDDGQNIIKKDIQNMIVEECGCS

GDF11 [3] = target: T1, GDF11; assay: BiaCore; ligand coupled to the device, receptor-Fc flowed over
Activin A [4] = target: T2, Activin A; assay: as above
GDF11 [5] = target: T1, GDF11; assay: BiaCore; ligand coupled, receptor-Fc flowed over; legend: -- = <⅕ WT binding

Molecule: ActRIIB-Fc A64 20-134 (from UniProt Q13705 20-134) (Fc fusion)
KI, GDF11 Inhibition Activity (cell based assay) (GDF11 [1]): 1000 nM
KI, Activin Inhibition Activity (cell based assay) (Activin A [2]): 1000 nM

B2: Soluble ActRIIB-Fc D80N (Fc fusion, UniProt Q13705 19-119, looked up)
chain: SGRGEAETRECIYYNANWELERTNQSGLERCEGEQDKRLHCYASWANSSGTIELVKKGCWLNDFNCYDRQECVATEENPQVYFCCCEGNFCNERFTHLPEA
notes: T0019 variant; whole entry named; not shown: Fc domain
binding result (GDF11 [3]): no binding
binding result (Activin A [4]): no binding

B4: Soluble ActRIIB-Fc K74A (Fc fusion, UniProt Q13705 19-119, looked up)
chain: B2 chain with K56A, N62D
notes: as for B2
Kd (GDF11 [3]): 5.3 nM
Kd (Activin A [4]): 4.35 nM

B6: Soluble ActRIIB-Fc D80K (Fc fusion, UniProt Q13705 19-119, looked up)
chain: B2 chain with N62K
notes: as for B2
binding result (GDF11 [3]): no binding
binding result (Activin A [4]): no binding

B8: Soluble ActRIIB-Fc D80F (Fc fusion, UniProt Q13705 19-119, looked up)
chain: B2 chain with N62F
notes: as for B2
binding result (GDF11 [3]): no binding
binding result (Activin A [4]): no binding

B9: Soluble ActRIIB-Fc L79A (Fc fusion, UniProt Q13705 19-119, looked up)
chain: B2 chain with L61A, N62D
notes: as for B2
binding result (GDF11 [3]): no binding

B10: Soluble ActRIIB-Fc K74I (Fc fusion, UniProt Q13705 19-119, looked up)
chain: B2 chain with K56I, N62D
notes: as for B2
binding result (Activin A [4]): no binding
binding relative to WT (GDF11 [5]): < 0.2 fold

B13: Soluble ActRIIB-Fc D80M (Fc fusion, UniProt Q13705 19-119, looked up)
chain: B2 chain with N62M
notes: as for B2
binding result (GDF11 [3]): no binding
binding result (Activin A [4]): no binding

B14: Soluble ActRIIB-Fc D80A (Fc fusion, UniProt Q13705 19-119, looked up)
chain: B2 chain with N62A
notes: as for B2
binding result (GDF11 [3]): no binding
binding result (Activin A [4]): no binding

B17: Soluble ActRIIB-Fc WT (64R) (Fc fusion, UniProt Q13705 19-119, looked up)
chain: B2 chain with A46R, N62D
notes: as for B2
Kd (GDF11 [3]): 86 nM

B19: Soluble ActRIIB-Fc D80I (Fc fusion, UniProt Q13705 19-119, looked up)
chain: B2 chain with N62I
notes: as for B2
binding result (Activin A [4]): no binding
binding relative to WT (GDF11 [5]): < 0.2 fold

The next lines start with the values.

binding result (GDF11 [3]): no binding
B1: Soluble ActRIIB-Fc D54A (Fc fusion, UniProt Q13705 19-119, looked up)
chain: B2 chain with D36A, N62D
notes: as for B2

binding result (Activin A [4]): no binding
binding relative to WT (GDF11 [5]): < 0.2 fold
B3: Soluble ActRIIB-Fc K74F (Fc fusion, UniProt Q13705 19-119, looked up)
chain: B2 chain with K56F, N62D
notes: as for B2

binding result (GDF11 [3]): no binding
binding result (Activin A [4]): no binding
B5: Soluble ActRIIB-Fc E37A (Fc fusion, UniProt Q13705 19-119, looked up)
chain: B2 chain with E19A, N62D
notes: as for B2

binding result (GDF11 [3]): no binding
binding result (Activin A [4]): no binding
B7: Soluble ActRIIB-Fc D80R (Fc fusion, UniProt Q13705 19-119, looked up)
chain: B2 chain with N62R
notes: as for B2

binding result (GDF11 [3]): no binding
binding result (Activin A [4]): no binding
B11: Soluble ActRIIB-Fc D80G (Fc fusion, UniProt Q13705 19-119, looked up)
chain: B2 chain with N62G
notes: as for B2

binding result (GDF11 [3]): no binding
binding result (Activin A [4]): no binding
B12: Soluble ActRIIB-Fc R56A (Fc fusion, UniProt Q13705 19-119, looked up)
chain: B2 chain with R38A, N62D
notes: as for B2

binding result (GDF11 [3]): no binding
B15: Soluble ActRIIB-Fc K55A (Fc fusion, UniProt Q13705 19-119, looked up)
chain: B2 chain with K37A, N62D
notes: as for B2

binding result (Activin A [4]): no binding
binding relative to WT (GDF11 [5]): < 0.2 fold
B16: Soluble ActRIIB-Fc K74Y (Fc fusion, UniProt Q13705 19-119, looked up)
chain: B2 chain with K56Y, N62D
notes: as for B2

binding result (GDF11 [3]): no binding
binding result (Activin A [4]): no binding
B18: Soluble ActRIIB-Fc W78A (Fc fusion, UniProt Q13705 19-119, looked up)
chain: B2 chain with W60A, N62D
notes: as for B2
